Laboratory results reported in PMC2756588.

T1: Abp1, P15891
T1 sequence (P15891 535-592, looked up): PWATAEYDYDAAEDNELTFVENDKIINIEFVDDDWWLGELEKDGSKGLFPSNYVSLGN

T2: Pex13, P80667
T2 sequence (P80667 295-386, looked up): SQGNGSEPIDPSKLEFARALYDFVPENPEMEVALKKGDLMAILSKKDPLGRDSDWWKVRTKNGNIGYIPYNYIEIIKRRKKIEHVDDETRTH

T3: Nbp2, Q12163
T3 sequence (Q12163 103-180, looked up): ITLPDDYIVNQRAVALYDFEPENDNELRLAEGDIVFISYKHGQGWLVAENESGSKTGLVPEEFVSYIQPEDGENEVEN

T4: Sla1-3, P32790
T4 sequence (P32790 344-424, looked up): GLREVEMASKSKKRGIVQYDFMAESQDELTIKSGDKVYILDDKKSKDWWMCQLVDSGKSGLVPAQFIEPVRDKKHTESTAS

T5: Boi2, P39969
T5 sequence (P39969 32-116, looked up): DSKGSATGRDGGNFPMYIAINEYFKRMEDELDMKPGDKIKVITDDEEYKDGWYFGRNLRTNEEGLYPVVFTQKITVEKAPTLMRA

T6: Bzz1-2, P38822
T6 sequence (P38822 568-633, looked up): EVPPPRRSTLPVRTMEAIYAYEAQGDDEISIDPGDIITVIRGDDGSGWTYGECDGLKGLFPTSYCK

T7: Bzz1-1, P38822
T7 sequence (P38822 478-572, looked up): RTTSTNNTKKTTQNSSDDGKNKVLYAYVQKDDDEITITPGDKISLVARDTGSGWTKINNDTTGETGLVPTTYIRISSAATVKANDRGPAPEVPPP

T8: Bud14, P27637
T8 sequence (P27637 247-328, looked up): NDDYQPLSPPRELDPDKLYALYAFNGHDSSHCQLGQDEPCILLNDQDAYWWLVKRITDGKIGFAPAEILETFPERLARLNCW

T9: Myo5, Q04439
T9 sequence (Q04439 1072-1160, looked up): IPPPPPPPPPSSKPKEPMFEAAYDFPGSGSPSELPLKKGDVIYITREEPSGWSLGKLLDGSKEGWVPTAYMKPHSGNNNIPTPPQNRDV

T10: Pin3, Q06449
T10 sequence (Q06449 53-122, looked up): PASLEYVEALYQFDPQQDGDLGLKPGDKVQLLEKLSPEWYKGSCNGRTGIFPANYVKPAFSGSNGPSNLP

T11: Lsb1, P53281
T11 sequence (P53281 45-122, looked up): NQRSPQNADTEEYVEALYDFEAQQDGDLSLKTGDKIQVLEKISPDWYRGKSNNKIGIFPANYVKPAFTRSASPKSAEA

T12: Boi1, P38041
T12 sequence (P38041 1-86, looked up): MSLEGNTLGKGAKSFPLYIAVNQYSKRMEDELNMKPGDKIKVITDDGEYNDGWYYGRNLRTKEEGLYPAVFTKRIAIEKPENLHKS

T13: Bbc1, P47068
T13 sequence (P47068 1-78, looked up): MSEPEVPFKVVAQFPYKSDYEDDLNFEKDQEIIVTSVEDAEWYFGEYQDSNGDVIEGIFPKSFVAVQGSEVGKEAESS

T14: Cdc25, P04821
T14 sequence (P04821 50-136, looked up): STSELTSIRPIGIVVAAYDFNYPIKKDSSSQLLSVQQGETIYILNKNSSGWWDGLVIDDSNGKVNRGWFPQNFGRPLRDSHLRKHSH

T15: Hof1, Q05080
T15 sequence (Q05080 590-669, looked up): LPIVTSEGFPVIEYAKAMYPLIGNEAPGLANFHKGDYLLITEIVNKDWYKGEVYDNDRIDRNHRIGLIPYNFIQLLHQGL

T16: Fus1, P11710
T16 sequence (P11710 432-512, looked up): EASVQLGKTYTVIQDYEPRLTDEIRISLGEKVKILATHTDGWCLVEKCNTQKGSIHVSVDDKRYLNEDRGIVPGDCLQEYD

T17: Sla1-2, P32790
T17 sequence (P32790 60-140, looked up): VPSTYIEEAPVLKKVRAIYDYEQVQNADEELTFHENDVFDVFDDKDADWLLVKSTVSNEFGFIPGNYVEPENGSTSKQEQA

T18: Cyk3, Q07533
T18 sequence (Q07533 1-83, looked up): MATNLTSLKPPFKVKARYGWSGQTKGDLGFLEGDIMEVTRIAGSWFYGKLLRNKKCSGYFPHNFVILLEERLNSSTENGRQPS

T19: Lsb4, P32793
T19 sequence (P32793 402-468, looked up): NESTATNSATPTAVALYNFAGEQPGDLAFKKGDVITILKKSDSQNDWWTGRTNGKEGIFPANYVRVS

T20: Hse1, P38753
T20 sequence (P38753 208-285, looked up): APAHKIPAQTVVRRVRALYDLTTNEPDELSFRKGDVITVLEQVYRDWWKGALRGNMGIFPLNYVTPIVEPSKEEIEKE

T21: Lsb3, P43603
T21 sequence (P43603 385-451, looked up): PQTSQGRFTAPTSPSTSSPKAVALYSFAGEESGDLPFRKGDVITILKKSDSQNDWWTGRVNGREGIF

B1: unnamed (peptide)
chain: APPPPPRRATPEKKP
B2: unnamed (peptide)
chain: LPMNIQPDLPPRKIM
B3: unnamed (peptide)
chain: EQEEIAPSLPSRNSI

What follows are binders tested against T1, Abp1, P15891 (assay: SPOT array). Conditions: median of control spots 935.

Row | SPOT intensity | Binder
1 | 77 | B1
2 | 141 | B2
3 | 0 | B3

These binders were tested against Bem1-2, P29366 (assay: SPOT array). Conditions: median of control spots 4347.
Bem1-2, P29366, sequence (P29366 139-227): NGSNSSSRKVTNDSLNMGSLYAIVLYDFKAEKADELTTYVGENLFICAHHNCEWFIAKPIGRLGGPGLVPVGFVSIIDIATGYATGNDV

Row | SPOT intensity | Binder
4 | 3 | B1
5 | 0 | B2
6 | 1 | B3

The binders below were run against T2, Pex13, P80667 (assay: SPOT array). Conditions: median of control spots 1341.

Row | SPOT intensity | Binder
7 | 68 | B1
8 | 35 | B2
9 | 417 | B3

The binders below were run against T3, Nbp2, Q12163 (assay: SPOT array). Conditions: median of control spots 357.

Row | SPOT intensity | Binder
10 | 0 | B1
11 | 6 | B2
12 | 0 | B3

Each binder was assayed against Bem1-1, P29366 (assay: SPOT array). Conditions: median of control spots 4282.
Bem1-1, P29366, sequence (P29366 55-141): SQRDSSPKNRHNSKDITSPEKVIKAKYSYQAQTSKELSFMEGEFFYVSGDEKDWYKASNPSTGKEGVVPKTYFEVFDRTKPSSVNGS

Row | SPOT intensity | Binder
13 | 0 | B1
14 | 0 | B2
15 | 1 | B3

The binders below were run against T4, Sla1-3, P32790 (assay: SPOT array). Conditions: median of control spots 5475.

Row | SPOT intensity | Binder
16 | 0 | B1
17 | 0 | B2
18 | 0 | B3

The binders below were run against T5, Boi2, P39969 (assay: SPOT array). Conditions: median of control spots 1161.

Row | SPOT intensity | Binder
19 | 1 | B1
20 | 0 | B2
21 | 1 | B3

Each binder was assayed against T6, Bzz1-2, P38822 (assay: SPOT array). Conditions: median of control spots 4538.

Row | SPOT intensity | Binder
22 | 0 | B1
23 | 0 | B2
24 | 1 | B3

The binders below were run against Sho1, P40073 (assay: SPOT array). Conditions: median of control spots 1148.
Sho1, P40073, sequence (P40073 287-367): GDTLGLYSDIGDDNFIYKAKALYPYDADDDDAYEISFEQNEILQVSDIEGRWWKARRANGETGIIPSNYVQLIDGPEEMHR

Row | SPOT intensity | Binder
25 | 21 | B1
26 | 29 | B2
27 | 0 | B3

These binders were tested against T7, Bzz1-1, P38822 (assay: SPOT array). Conditions: median of control spots 4446.

Row | SPOT intensity | Binder
28 | 1 | B1
29 | 0 | B2
30 | 0 | B3

The binders below were run against T8, Bud14, P27637 (assay: SPOT array). Conditions: median of control spots 956.

Row | SPOT intensity | Binder
31 | 0 | B1
32 | 0 | B2
33 | 0 | B3

What follows are binders tested against T9, Myo5, Q04439 (assay: SPOT array). Conditions: median of control spots 471.

Row | SPOT intensity | Binder
34 | 14 | B1
35 | 35 | B2
36 | 0 | B3

The binders below were run against Rvs167, P39743 (assay: SPOT array). Conditions: median of control spots 2707.
Rvs167, P39743, sequence (P39743 419-482): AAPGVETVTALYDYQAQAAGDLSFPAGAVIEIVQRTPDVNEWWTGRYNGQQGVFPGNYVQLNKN

Row | SPOT intensity | Binder
37 | 525 | B1
38 | 2810 | B2
39 | 31 | B3

Each binder was assayed against T10, Pin3, Q06449 (assay: SPOT array). Conditions: median of control spots 2171.

Row | SPOT intensity | Binder
40 | 8 | B1
41 | 175 | B2
42 | 0 | B3

The binders below were run against GST (assay: SPOT array). Conditions: median of control spots 978.

Row | SPOT intensity | Binder
43 | 1 | B1
44 | 0 | B2
45 | 2 | B3

Each binder was assayed against T11, Lsb1, P53281 (assay: SPOT array). Conditions: median of control spots 388.

Row | SPOT intensity | Binder
46 | 30 | B1
47 | 285 | B2
48 | 20 | B3

Each binder was assayed against Myo3, P36006 (assay: SPOT array). Conditions: median of control spots 468.

Row | SPOT intensity | Binder
49 | 92 | B1
50 | 102 | B2
51 | 0 | B3

The binders below were run against T12, Boi1, P38041 (assay: SPOT array). Conditions: median of control spots 1162.

Row | SPOT intensity | Binder
52 | 0 | B1
53 | 0 | B2
54 | 0 | B3

What follows are binders tested against T13, Bbc1, P47068 (assay: SPOT array). Conditions: median of control spots 796.

Row | SPOT intensity | Binder
55 | 14 | B1
56 | 2 | B2
57 | 0 | B3

The binders below were run against T14, Cdc25, P04821 (assay: SPOT array). Conditions: median of control spots 969.

Row | SPOT intensity | Binder
58 | 3 | B1
59 | 0 | B2
60 | 1 | B3

Each binder was assayed against T15, Hof1, Q05080 (assay: SPOT array). Conditions: median of control spots 4086.

Row | SPOT intensity | Binder
61 | 0 | B1
62 | 0 | B2
63 | 2 | B3

These binders were tested against T16, Fus1, P11710 (assay: SPOT array). Conditions: median of control spots 1200.

Row | SPOT intensity | Binder
64 | 0 | B1
65 | 0 | B2
66 | 0 | B3

The binders below were run against T17, Sla1-2, P32790 (assay: SPOT array). Conditions: median of control spots 712.

Row | SPOT intensity | Binder
67 | 0 | B1
68 | 6 | B2
69 | 0 | B3

Each binder was assayed against T18, Cyk3, Q07533 (assay: SPOT array). Conditions: median of control spots 1451.

Row | SPOT intensity | Binder
70 | 1 | B1
71 | 0 | B2
72 | 1 | B3

Each binder was assayed against T19, Lsb4, P32793 (assay: SPOT array). Conditions: median of control spots 397.

Row | SPOT intensity | Binder
73 | 424 | B1
74 | 1360 | B2
75 | 517 | B3

What follows are binders tested against T20, Hse1, P38753 (assay: SPOT array). Conditions: median of control spots 1727.

Row | SPOT intensity | Binder
76 | 0 | B1
77 | 3 | B2
78 | 0 | B3

Each binder was assayed against T21, Lsb3, P43603 (assay: SPOT array). Conditions: median of control spots 406.

Row | SPOT intensity | Binder
79 | 432 | B1
80 | 941 | B2
81 | 998 | B3
